In publication PMC11093223 (2024):

B1: syntaxin-16 (209–221) peptide [human] / TBC1D23 C-terminal domain [mouse] (parent complex)
chain 1: DDNTLYHRGFTED
chain 2: DRKEVVNIQTWINKPDIKHHFPCKEVKESGHMFPSHLLVTATHMYCLREILSRKGLAYIQSRQALNSVVKITSKKKHPELITFKYGNSSASGIEILAIERYLIPNAGDATRAIKQQIMKVLDALES

Variants of: B1
Assay: ITC

Kd [µM]	Variant
10.3	chain 1 R8A
